# Source: US20040033229A1 (published 2004)
# B1: 225Ac labeled mAb 026 (antibody, V domains shown)
# VH: QVQLVESGGGVVQPGRSLRLSCAASGFTFSNYVMHWVRQAPGKGLEWVAIIWYDGSNKYYADSVKGRFTISRDNSKNTLYLQMNSLRAEDTAVYYCAGGYNWNYEYHYYGMDVWGQGTTVTVSS
# VL: DIQMTQSPSSLSASVGDRVTITCRASQGITNYLAWFQQKPGKAPKSLIYAASSLQSGVPSKFSGSGSGTDFSLTISSLQPEDFATYYCQQYNSYPITFGQGTRLEIK
# modifications: 225Ac-DOTA conjugate, sites not stated; 225Ac-DOTA conjugate, sites not stated ; 225Ac chelated by DOTA and conjugated to the antibody; sites not stated
# Biological target: prostate specific membrane antigen (PSMA), full-length, on the cell surface (human, UniProt Q04609 1-750)
# Test: cell-based or functional assay
# prostate specific membrane antigen (PSMA), full-length, on the cell surface, sequence (Q04609 whole entry): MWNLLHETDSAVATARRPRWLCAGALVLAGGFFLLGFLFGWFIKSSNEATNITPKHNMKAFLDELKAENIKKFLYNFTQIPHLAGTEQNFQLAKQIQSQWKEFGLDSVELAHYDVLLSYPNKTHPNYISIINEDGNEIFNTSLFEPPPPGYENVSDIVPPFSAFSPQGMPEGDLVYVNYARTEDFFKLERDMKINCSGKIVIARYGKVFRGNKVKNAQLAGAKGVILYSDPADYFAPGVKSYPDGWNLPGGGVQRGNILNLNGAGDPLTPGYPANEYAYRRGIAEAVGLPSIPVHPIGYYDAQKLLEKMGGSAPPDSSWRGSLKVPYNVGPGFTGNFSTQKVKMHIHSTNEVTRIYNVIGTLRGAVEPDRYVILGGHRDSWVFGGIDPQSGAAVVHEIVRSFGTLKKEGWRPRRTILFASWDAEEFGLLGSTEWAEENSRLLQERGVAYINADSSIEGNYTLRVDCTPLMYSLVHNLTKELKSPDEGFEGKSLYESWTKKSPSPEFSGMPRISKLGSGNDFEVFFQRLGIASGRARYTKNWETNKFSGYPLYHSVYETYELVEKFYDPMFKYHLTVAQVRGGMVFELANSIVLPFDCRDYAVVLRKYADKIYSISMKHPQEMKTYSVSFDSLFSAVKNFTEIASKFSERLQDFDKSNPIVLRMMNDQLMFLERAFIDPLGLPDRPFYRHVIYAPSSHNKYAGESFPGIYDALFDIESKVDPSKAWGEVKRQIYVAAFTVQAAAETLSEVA
binder,measurement,value
B1,"IC50 of cell survival (3H thymidine incorporation), C4-2 cells",0.12 nCi/mL
same,"IC50 of cell survival, C4-2 and LNCaP cells",< 1 nCi/mL
same,"selectivity of killing, C4-2 against PC3",> 50 fold
